We go through three molecules from article PMC8860381 (Molecular Cell, 2022).

What is called Km is the substrate concentration at which the rate is half of its maximum. One may read the kcat as the maximal rate divided by the concentration of active sites.

Series [1] deals with Nc1ncnc2c1ncn2[C@@H]1O[C@H](COP(=O)(O)OP(=O)(O)OP(=O)(O)O)[C@@H](O)[C@H]1O. Kind of series: pyruvate kinase/lactate dehydrogenase-coupled ATPase assay. Format: biochemical, Homo sapiens. The note with it: 10 μg/mL poly(U) RNA, 50 nM complex, 5 mM MgAc2, 50 mM KAc, pH 7.5, 37°C.
In series [2] the target is T1, hSKI complex (hSKI-WT; hSKI2-hSKI3-hSKI8) (Homo sapiens, UniProt Q15477, V341G).
T1 construct: gene SKIC2; full-length subunits co-expressed in Sf21 insect cells; 3C-cleavable 10xHis tag on TTC37 N-terminus, tag removed; with Superkiller complex protein 3 (tetratricopeptide repeat protein 37); Superkiller complex protein 8 (WD repeat-containing protein 61)
The description is as above. As to conditions: 10 μg/mL poly(U) RNA, 50 nM complex, 5 mM MgAc2, 50 mM KAc, pH 7.5, 37°C. Format: biochemical.

Series [3] deals with T2, hSKI complex (hSKI-WT; hSKI2-hSKI3-hSKI8) (Homo sapiens, UniProt Q15477, E424Q).
T2 construct: gene SKIC2; full-length subunits co-expressed in Sf21 insect cells; 3C-cleavable 10xHis tag on TTC37 N-terminus, tag removed; with Superkiller complex protein 3 (tetratricopeptide repeat protein 37); Superkiller complex protein 8 (WD repeat-containing protein 61)
The series is described as above. It is filed as biochemical. The note with it: 10 μg/mL poly(U) RNA, 50 nM complex, 5 mM MgAc2, 50 mM KAc, pH 7.5, 37°C.

For series [4], the target named is T3, hSKI-Δarch (Homo sapiens, UniProt Q15477).
T3 construct: gene SKIC2; Sf21 insect cells; 10xHis tag on TTC37 removed; with Superkiller complex protein 3 (tetratricopeptide repeat protein 37); Superkiller complex protein 8 (WD repeat-containing protein 61)
Described as above. Format: biochemical. The note with it: 10 μg/mL poly(U) RNA, 50 nM complex, 5 mM MgAc2, 50 mM KAc, pH 7.5, 37°C. The source says: pyruvate kinase/lactate dehydrogenase-coupled ATPase assay on hSKI-Δarch | removal of the hSKI2 arch domain led only to a minor increase in the ATPase activity

For series [5], the target named is hEXO10c (hEXO9 core + hDIS3L D486N) (Homo sapiens, UniProt Q8TF46;Q9Y3B2;Q13868;Q9NQT5;Q9NPD3;Q9NQT4;Q5RKV6;Q15024;Q96B26;Q06265 …, D486N). The experiment in a line: RNase protection (benzonase); hEXO10c alone, characteristic footprint, lane 1; Binding buffers not in material (Methods sections for RNase protection and cryo-EM sample preparation are empty); hSKI storage buffer 20 mM Hepes pH 7.5, 100 mM NaCl, 2 mM DTT. The note with it: protein: recombinant; tags: TwinStrep-3C on DIS3L N-terminus; copies: 1;1;1;1;1;1;1;1;1;1; label: 32P body-labelled (alpha-32P UTP); single strand.

On to “hSKI complex (hSKI-WT; hSKI2-hSKI3-hSKI8) (Homo sapiens)”, for which, in series [1], the Km was 149.4 µM and the turnover number (kcat) is 0.685 s⁻¹.

As for `Nc1ncnc2c1ncn2[C@@H]1O[C@H](COP(=O)(O)OP(=O)(O)OP(=O)(O)O)[C@@H](O)[C@H]1O` [ATP], the “inactive in ATPase assay” value in series [2] is “V341G substitution (hSKI-THES) and indeed found that it is inactive in ATPase assays”. For the same molecule, in series [3], the ATPase activity abolished result is given as “the ATPase activity of hSKI was abolished in the case of a mutant complex”. In addition, in series [4], the Km was determined as 121 µM.

B1: GGGC(*UC)48 RNA (ssRNA)
RNA: GGGCUCUCUCUCUCUCUCUCUCUCUCUCUCUCUCUCUCUCUCUCUCUCUCUCUCUCUCUCUCUCUCUCUCUCUCUCUCUCUCUCUCUCUCUCUCUCUCUC
Consider B1, for which the binding result in series [5] is reported as “binds”.
